Experimental findings from patent publication EP4763862A1 (Beijing Tide Pharmaceutical Co., Ltd., dated 2026) are described below.

To fix the notation:
T1: mouse B7-H3 on CHO-mouse B7-H3 cells (mouse, UniProt Q8VE98 29-316)
T1 construct: whole, on cells; also called CHO-S-mouse-B7-H3; murine B7-H3
T1 sequence (looked up): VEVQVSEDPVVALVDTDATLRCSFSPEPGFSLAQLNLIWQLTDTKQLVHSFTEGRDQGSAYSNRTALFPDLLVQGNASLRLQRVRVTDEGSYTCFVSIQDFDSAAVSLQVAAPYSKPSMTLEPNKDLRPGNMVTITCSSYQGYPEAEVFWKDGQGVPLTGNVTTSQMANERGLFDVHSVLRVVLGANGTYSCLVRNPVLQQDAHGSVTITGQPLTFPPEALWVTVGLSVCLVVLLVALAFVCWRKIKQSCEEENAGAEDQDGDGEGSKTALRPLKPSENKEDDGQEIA

T2: B7-H3 on NCI-H446 cells (UniProt Q5ZPR3 29-534)
T2 construct: whole, on cells
T2 sequence (looked up): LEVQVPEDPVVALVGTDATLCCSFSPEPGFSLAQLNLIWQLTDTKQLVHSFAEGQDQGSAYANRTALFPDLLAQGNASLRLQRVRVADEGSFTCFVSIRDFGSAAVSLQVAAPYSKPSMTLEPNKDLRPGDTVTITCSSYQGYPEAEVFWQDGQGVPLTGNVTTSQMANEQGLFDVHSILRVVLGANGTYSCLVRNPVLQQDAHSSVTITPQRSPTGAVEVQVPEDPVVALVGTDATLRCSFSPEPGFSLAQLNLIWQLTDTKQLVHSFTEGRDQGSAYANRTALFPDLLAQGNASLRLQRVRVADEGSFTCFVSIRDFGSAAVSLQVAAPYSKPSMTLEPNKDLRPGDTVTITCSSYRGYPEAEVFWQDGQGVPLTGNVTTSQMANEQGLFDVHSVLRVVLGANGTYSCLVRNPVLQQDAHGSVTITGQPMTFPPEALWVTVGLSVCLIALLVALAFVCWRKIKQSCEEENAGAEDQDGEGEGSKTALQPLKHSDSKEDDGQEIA

B1: 19-F1-E9-B11 (antibody, human IgG1, kappa, V domains shown)
VH: EVQLQQSGPSLVKPSQTLSLTCSVTGGSITSFYWNWIRKFPGNKLEYMGYISSSGSTYYNPSLKSRISITRDTSKNQSYLQLNSVTAEDTATYYCARGGVHYGFGDYWGQGTSVTVSS
VL: DIVMTQSAPSVPVTPGESVSISCRSSKSLLHSNGNTYLYWFLQRPGQSPQLLIYRMSNLASGVPDRFSGSGSGTAFTLRISRVEAEDVGVYYCMQHLEYPLTFGAGTKLELKR
notes: also called CB11
B2: 16-D10-E1-E1 (antibody, human IgG1, kappa, V domains shown)
VH: EVQLQQSGPELVRPGVSVKISCKGSGYTFTDYAMHWVKQSHAKSLEWIGVINTYSGNTYYSQKFKGKATMTVDKSSSTAYMELARLTSEDSAIYYCARGAGYFPYWYFDVWGAGTTVTVSS
VL: DIQMIQSPSYLAASPGETITINCRASKSISKYLAWYQEKPGKTNKLLIYSGSTLQSGIPSRFSGSGSGTDFTLTISSLEPEDFAMYYCQQHYEYPYTFGGGTKLEIKR
B3: 9-A2-G3-H11 (antibody, human IgG1, kappa, V domains shown)
VH: EVQLQQSGPELVRPGESVKISCKGSGYTFTDYAIHWVKQSHAKSLEWIGVISTYYDNTYYNQKFKGRATMTVDKSSSTAYMELARLTSEDSAIYYCARGYGSSFNWYFDVWGAGTTVTVSS
VL: DIVMTQSPSSLAVSAGEKVTMSCKSSQSLLNSRTRKNYLAWYQQKPGQSPKLLIYWASTRESGVPDRFTGSGSGTDFTLTITSVQAEDLAVYYCKQSYNLYTFGGGTKLEIKR
B4: 28-B5-B6-C6 (antibody, human IgG1, kappa, V domains shown)
VH: EVKLQESGPGLVKPSQSLSLTCTVTGYSITSDYAWNWIRQFPGNILEWMGYISYSGSASYNPSLQSRISVTRDTSKNQFFLQLNSVTTEDTATYYCVRSLGRRWYFGFWGAGTTVTVSS
VL: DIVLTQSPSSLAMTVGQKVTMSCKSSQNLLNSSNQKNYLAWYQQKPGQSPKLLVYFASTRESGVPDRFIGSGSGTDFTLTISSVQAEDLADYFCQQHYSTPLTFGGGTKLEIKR
B5: 9-F1-D9-F10 (antibody, human IgG1, kappa, V domains shown)
VH: EVQLVESGGGLVQPGGSLRVSCATSGFTFSDYYMSWVRQPPGKALEWLGFIRNKINGYTTEYSASVKGRFTISRDNSQSILYLQMNTLRAEDSATYYCTRDSSQRPFAYWGQGTLVTVSA
VL: DIVMTQSPSSLSVSAGEKVTMTCKSSQSLLNSRSQKNFLAWYQQKPGQPPKLLIYGASTRESGVPDRFTGSGSGTDFTLTISNVQAEDLAVYYCQNDLTYPLTFGAGTKLELKR
B6: 29-A9-G8-F6 (antibody, human IgG1, kappa, V domains shown)
VH: EVQLQQSGPELVRPGVSVKISCKGSGYTFTDYSMHWVKQSHAKSLEWIGVINTSSGNTYYNLKFKGKATMTVDKSSSTAYMELARLTSEDSAIYYCSKYYGSSFHWYFDVWGAGTTVTVSS
VL: DIVMTQSPVIMSASPGEKVTMTCSASSSVSYMHWYQQKSSTSPKLWIYDTSKLASGVPGRFSGTGSGKSHSLTISSMEAEDVATYYCFQGSGYPLTFGSGTKLEIKR
B7: 48-B4-F4-E4 (antibody, human IgG1, kappa)
heavy: not shown
light: DVLMTQTPLSLPVSLGDQVSISCRASQSLANSYGKTYLSWYLHKPGQSPQLLIYGISNRFSGVPDRFSGSGSGTDFTLKISTIKPEDLGMYYCLHGTHQPLTFGAGTKLELKRTVAAPSVFIFPPSDEQLKSGTASVVCLLNNFYPREAKVQWKVDNALQSGNSQESVTEQDSKDSTYSLSSTLTLSKADYEKHKVYACEVTHQGLSSPVTKSFNRGEC
notes: also called CE4
B8: 28-B1-E8-C11 (antibody, human IgG1, kappa, V domains shown)
VH: EVKLVESGAVLVKPGASVKISCKASGYTLSDFNMDWVKQSQGKSLEWVGDINPNYDTITYNQKFRGKATLTVDRSSNTAYMELRSLTSEDSAVYYCARGELGRYFYVWGAGTTVTVSS
VL: DIQLTQPPASLSASVGETVTITCRASENVYSYLAWYRQKQGRSPQLLVYNAKTLPEGVPSRFSGSGSGTQFSLKINSLQTEDLGDYYCQHHYGTPWTFGGGTKLEIKR
notes: parent of the cAb2 humanized antibodies; also called CC11
B9: cAb2-z0-p9 (antibody, human IgG1, kappa, V domains shown)
VH: EVKLVESGAVLVKPGASVKISCKASGYTLSDFNMDWVKQSQGKSLEWVGDINPNYDTITYNQKFRGKATLTVDRSSNTAYMELRSLTSEDSAVYYCARGELGRYFYVWGAGTTVTVSS
VL: DIQLTQPPSSLSASVGDRVTITCRASENVYSYLAWYQQKPGRSPQLLVYNAKTLQEGVPSRFSGSGSGTQFTLTISSLQPEDVADYYCQHHYGTPWTFGGGTKVEIKR
notes: Humanized from 28-B1-E8-C11; Human IgG1 / kappa
B10: cAb2-z1-p9 (antibody, human IgG1, kappa, V domains shown)
VH: EVKLVESGAVLVKPGASVKISCKASGYTLSDFNMDWVKQSQGKSLEWVGDINPNYDTITYNQKFRGKATLTVDRSSNTAYMELRSLTSEDSAVYYCARGELGRYFYVWGAGTTVTVSS
VL: DIQLTQPPSSLSASVGDRVTITCRASENVYSYLAWYQQKPGRSPQLLVYNAKTLPEGVPSRFSGSGSGTQFTLTISSLQPEDFADYYCSHHYGTPWTFGGGTKVEIKR
notes: Humanized from 28-B1-E8-C11; Human IgG1 / kappa; also called cAb2-zl-p9
B11: cAb2-z2-p6 (antibody, human IgG1, kappa, V domains shown)
VH: QVQLVESGAVVKKPGASVKVSCKASGYTLSDFNMDWVRQAPGKSLEWMGDINPNYDTITYNQKFRGRVTLTVDRSINTAYMELSRLRSDDTAVYYCARGELGRYFYVWGAGTMVTVSS
VL: DIQLTQPPSSLSASVGDRVTITCRASENVYSYLAWYQQKPGRSPQLLVYNAKTLQEGVPSRFSGSGSGTQFTLTISSLQPEDFADYYCQHHYGTPWTFGGGTKVEIKR
notes: as for B9
B12: cAb2-z3-p6 (antibody, human IgG1, kappa, V domains shown)
VH: QVQLVESGAVVKKPGASVKVSCKASGYTLSDFNMDWVRQAPGKSLEWMGDINPNYDTITYNQKFRGRVTLTVDRSINTAYMELSRLRSDDTAVYYCARGELGRYFYVWGAGTMVTVSS
VL: DIQLTQPPSFLSASVGDRVTITCRASENVYSYLAWYQQKPGRSPQLLVYNAKTLQEGVPSRFSGSGSGTEFTLTISSLQPEDFADYYCQHHYGTPWTFGGGTKVEIKR
notes: as for B9
B13: cAb2-z4-p6 (antibody, human IgG1, kappa, V domains shown)
VH: QVQLVESGAVVKKPGASVKVSCKASGYTLSDFNMDWVRQAPGKSLEWMGDINPNYDTITYNQKFRGRVTLTVDRSINTAYMELSRLRSDDTAVYYCARGELGRYFYVWGAGTMVTVSS
VL: DIQLTQPPSSLSASVGDRVTITCRASENVYSYLAWYQQKPGRSPQLLVYNAKTLQEGVPSRFSGSGSGTQFTLTISSLQPEDVADYYCQHHYGTPWTFGGGTKVEIKR
notes: as for B9
B14: cAb2-z5-p6 (antibody, human IgG1, kappa, V domains shown)
VH: QVQLVESGAVVKKPGASVKVSCKASGYTLSDFNMDWVRQAPGKSLEWMGDINPNYDTITYNQKFRGRVTLTVDRSINTAYMELSRLRSDDTAVYYCARGELGRYFYVWGAGTMVTVSS
VL: DIQLTQPPSSLSASVGDRVTITCRASENVYSYLAWYQQKPGRSPQLLVYNAKTLPEGVPSRFSGSGSGTQFTLTISSLQPEDFADYYCSHHYGTPWTFGGGTKVEIKR
notes: as for B9
B15: cAb1-uIgG1K (antibody)
heavy: not shown
light: DVLMTQTPLSLPVSLGDQVSISCRASQSLANSYGKTYLSWYLHKPGQSPQLLIYGISNRFSGVPDRFSGSGSGTDFTLKISTIKPEDLGMYYCLHGTHQPLTFGAGTKLELKRTVAAPSVFIFPPSDEQLKSGTASVVCLLNNFYPREAKVQWKVDNALQSGNSQESVTEQDSKDSTYSLSSTLTLSKADYEKHKVYACEVTHQGLSSPVTKSFNRGEC
notes: Parental chimeric antibody of the cAb1 series; also called cAb1-ulgG1K

One assay addresses T1, mouse B7-H3 on CHO-mouse B7-H3 cells. As to the kind of experiment: flow cytometry on CHO-mouse B7-H3 cells, antibody 10 µg/ml.
Regarding B1, the binding result is reported as “binds”.
The same measure, in the same setting: the result for B2 reads “binds”; that for B3, “binds”.
In the case of B4, the binding result was “binds”.
For B5, the binding result is given as “binds”.
Same read-out and setting: next, B6: “binds”; B7: “binds”.

A further assay addresses T2, B7-H3 on NCI-H446 cells. As to the kind of experiment: flow cytometry on NCI-H446 cells, goat anti-human Fc secondary.
B8 displayed an EC50 of 4.45 nM.
B9: the EC50 was determined as 1.15 nM.
Same read-out and setting: next, B10: 2.22 nM.
For the molecule B11, the concentration giving a half-maximal response (EC50) was 1.36 nM.
Take B12: the concentration for a half-maximal effect (EC50) came out at 1.06 nM.
On the same count and under the same terms, next, B13: 0.552 nM; B14: 3.92 nM.
Same read-out and setting: next, B15: 3.45 nM.

A further assay addresses T3, B7-H3 Cyno-His (cynomolgus monkey).
T3 construct: also called cynomolgus monkey B7-H3
As to the kind of experiment: SPR, Biacore 8K, antibody captured by anti-human IgG Fc on CM5, B7-H3 Cyno-His as analyte, 1:1 model.
Take B15: binding was put at a Kd of 3.35 nM, the koff was found to be 5.47e-05 s⁻¹ and the kon was found to be 16300 M⁻¹ s⁻¹.
